Experimental data published in paper PMC5812716 (2018).
Read-outs that look alike come from different tables or passages of the source.

T1: MukB (E. coli, UniProt P22523 1-1486)
T1 chain: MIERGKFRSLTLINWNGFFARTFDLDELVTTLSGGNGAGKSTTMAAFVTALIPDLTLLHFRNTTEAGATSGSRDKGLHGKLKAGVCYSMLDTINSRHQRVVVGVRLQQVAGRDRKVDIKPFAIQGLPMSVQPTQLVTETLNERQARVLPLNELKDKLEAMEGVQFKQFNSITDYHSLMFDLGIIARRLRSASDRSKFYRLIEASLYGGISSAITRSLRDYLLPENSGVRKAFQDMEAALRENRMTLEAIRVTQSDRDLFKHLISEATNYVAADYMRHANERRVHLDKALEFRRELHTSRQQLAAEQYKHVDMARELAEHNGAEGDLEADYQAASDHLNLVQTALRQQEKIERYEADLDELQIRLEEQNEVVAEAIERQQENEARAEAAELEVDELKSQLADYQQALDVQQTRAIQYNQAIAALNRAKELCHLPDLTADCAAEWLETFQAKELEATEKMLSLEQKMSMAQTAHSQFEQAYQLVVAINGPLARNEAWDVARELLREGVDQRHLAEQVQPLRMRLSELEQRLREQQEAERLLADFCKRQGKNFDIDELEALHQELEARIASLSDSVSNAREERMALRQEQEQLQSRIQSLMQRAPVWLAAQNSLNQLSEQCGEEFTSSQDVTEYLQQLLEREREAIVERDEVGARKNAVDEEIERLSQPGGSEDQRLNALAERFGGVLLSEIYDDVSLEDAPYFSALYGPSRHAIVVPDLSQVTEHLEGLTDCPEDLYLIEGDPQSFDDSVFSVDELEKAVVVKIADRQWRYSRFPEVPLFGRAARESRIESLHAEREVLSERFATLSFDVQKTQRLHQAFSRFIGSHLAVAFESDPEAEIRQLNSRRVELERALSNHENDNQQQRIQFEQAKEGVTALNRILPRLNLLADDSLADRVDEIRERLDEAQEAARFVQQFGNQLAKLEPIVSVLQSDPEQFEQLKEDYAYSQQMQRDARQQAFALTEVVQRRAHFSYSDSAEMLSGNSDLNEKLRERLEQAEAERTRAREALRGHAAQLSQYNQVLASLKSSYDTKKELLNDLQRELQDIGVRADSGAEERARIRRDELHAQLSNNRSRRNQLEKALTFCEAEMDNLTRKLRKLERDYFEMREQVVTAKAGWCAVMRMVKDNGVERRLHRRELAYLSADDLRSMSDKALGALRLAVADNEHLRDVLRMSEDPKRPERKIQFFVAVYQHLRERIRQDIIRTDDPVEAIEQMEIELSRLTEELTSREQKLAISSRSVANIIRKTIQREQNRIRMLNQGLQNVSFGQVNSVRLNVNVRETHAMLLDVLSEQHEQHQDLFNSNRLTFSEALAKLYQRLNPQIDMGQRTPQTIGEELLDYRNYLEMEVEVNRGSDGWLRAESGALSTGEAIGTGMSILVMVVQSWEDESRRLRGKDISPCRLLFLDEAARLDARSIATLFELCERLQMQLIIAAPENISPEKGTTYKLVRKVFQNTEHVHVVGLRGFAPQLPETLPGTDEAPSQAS

B1: Cy5 labelled FC2 (domain or fragment)
chain: AIDMDKNRVFAQRLRQSVQTYFDEPWALTYANADRLLDMRDEEMALRDEEVTGELPEDLEYEEFNEIREQLAAIIEEQLAVYKTRQVPLDLGLVVREYLSQYPRARHFDVARIVIDQAVRLGVAQADFTGLPAKWQPINDYGAKVQAHVIDKY
modifications: Cy5 label (site not stated)
B2: Cy5 labelled FN2 (domain or fragment)
chain: MSEFSQTVPELVAWARKNDFSISLPVDRLSFLLAVATLNGERLDGEMSEGELVDAFRHVSDAFEQTSETIGVRANNAINDMVRQRLLNRFTSEQAEGNAIYRLTPLGIGITDYYIRQREFSTLRLSMQLSIVAGELKRAADAAEEGGDEFHWHRNVYAPLKYSVAEIFDSIDLTQRLMDEQQQQVKDDIAQLLNKDWRAAISSCELLLSETSGTLRELQDTLEAAGDKLQANLLRIQDATMTHDDLHFVDRLVFDLQSKLDRIISWGQQSIDLWIGYDRHVHKFIRT
modifications: Cy5 label (site not stated)
B3: Cy5 labelled FN10 (domain or fragment)
chain: MSEFSQTVPELVAWARKNDFSISLPVDRLSFLLAVATLNGERLDGEMSEGELVDAFRHVSDAFEQTSETIGVRANNAINDMVRQRLLNRFTSEQAEGNAIYRLTPLGIGITDYYIRQREFSTLRLSMQLSIVAGELKRAADAAEEGGDEFHWHRNVYAPLKYSVAEIFDSIDLTQRLMDEQQQQVKDDIAQLLNKDWRAAISSCELLLSETSGTLRELQDTLEAAGDKLQANLLRIQDATMTHDDLHFVDRLVFDLQSKLDRIISWGQQSIDLWIGYDRHVHKFIRTAIDMDKNRVFAQRLRQSVQTYFDEPWALTYANADRLLDMRDEEMALRDEEVTGELPED
modifications: Cy5 label (site not stated)
B4: Cy5 labelled FN3 (domain or fragment)
chain: REFSTLRLSMQLSIVAGELKRAADAAEEGGDEFHWHRNVYAPLKYSVAEIFDSIDLTQRLMDEQQQQVKDDIAQLLNKDWRAAISSCELLLSETSGTLRELQDTLEAAGDKLQANLLRIQDATMTHDDLHFVDRLVFDLQSKLDRIISWGQQSIDLWIGYDRHVHKFIRT
modifications: Cy5 label (site not stated)

Key:
MukB [1] = biological target: T1, MukB; assay: FP
MukB [2] = biological target: T1, MukB

Binder | Kd (MukB [1]) [nM] | Kd (MukB [2]) [nM]
B1 | 23 | –
B2 | – | 26
B3 | – | 10
B4 | 21 | –
